Measurements taken from US8377889B2, “Adiponectin receptor fragments and methods of use” (Siemens Healthcare Diagnostics Inc., priority 2007, dated 2013).
“Also recorded” adds a separate entry of the source. Read-outs that look alike come from different tables or passages of the source. Each block holds one molecule with its values, some of them ahead of it. Residues, ends and D or L forms follow the SMILES beside them.

Assays:
[1] = Plasma ECM32 (AdipoR1) level in normal and diabetic rats; type: in vivo; details: rat, 2 mg/kg, 120 min
Experimental: The effect of ECM32 (SEQ ID NO:1) on the plasma adiponectin and ECM32 levels in normal and diabetic rats was evaluated. The peptide was injected at 2 mg/kg along with a control group.

ADAM-17 = ADAM-17 (Homo sapiens, UniProt P78536); assay: Inhibition of ADAM-17 (TACE) activity; type: biochemical; details: for ADAM 17 inhibition: Example 9, Table 3
Experimental: (§1) The cleavage enzymes for ECM32 are also potential therapeutic targets. ECM32 sequence at the cleavage site was matched to Elastase (X-VV) and ADAM17 (X-VVAA) as potential enzymes (proteases) able to cleave or bind ECM32. The peptides of SEQ ID NO:1 (ECM32) and SEQ ID NO:2 (ECM30) were tested at levels of 0 mg/L, 12.5 mg/L, 25 mg/L, and 50 mg/L for their effect on cleavage enzymes.
The effect of ECM32 (SEQ ID NO:1), ECM30 (SEQ ID NO:2), ECM25 (SEQ ID NO:5), ECM10 (SEQ ID NO:6), ECM12 (SEQ ID NO:7), and ECM9 (SEQ ID NO:8) on ADAM-17 activity was evaluated.

[2] = molecular target: T1, insulin degradation enzyme (IDE) (Homo sapiens, UniProt P14735); assay: Inhibition of IDE activity; type: biochemical; details: Example 9, Table 3
normal rats = assay: Plasma insulin testing in normal rats; type: in vivo, rat
Experimental: The peptides of SEQ ID NO:1 (ECM32) and SEQ ID NO:2 (ECM30) were tested by treating normal rat groups of 6 to 8 animals at 2 mg/mL in saline intravenously and compared to an untreated control group (0.9% saline solution only). All three groups were fasted on Day 0. Fasted plasma glucose and insulin were measured on Day 1 at 0, 30, 60, 90, and 120 minutes post glucose dose (5 mL/kg). Plasma levels of ECM30 and ECM32 were also measured. Plots of the data are shown in FIG. 1 and FIG. 2, for the insulin level in ng/mL and glucose level in mg/dL, respectively, as a function of time.

diabetic rats = assay: Plasma insulin testing in diabetic rats; type: in vivo, rat; details: 2 mg/mL and 10 mg/mL in saline intravenously
Experimental: The peptide of SEQ ID NO:2 (ECM30) was tested by treating diabetic rat groups of 8 animals at 2 mg/mL and 10 mg/mL in saline intravenously and compared to a control group (bovine serum albumin in saline). All three groups were fasted on Day 0. Fasted plasma glucose and insulin were be measured on Day 1 at 0, 30, 60, 90, and 120 minutes post glucose dose. Plots of the data are shown in FIG. 3 and FIG. 4, for the insulin level and % of pre-dose glucose in ng/ml, respectively, as a function of time.

Elastase = Elastase inhibition; type: biochemical; details: Example 4; 0, 12.5, 25, 50 mg/L
Experimental: as §1

[3] = molecular target: T1, insulin degradation enzyme (IDE); assay: Inhibition of IDE activity; type: biochemical; details: Example 8; 0-50 μg/ml for ECM32, 0-100 μg/ml for ECM30
Experimental: The effect of ECM32 (SEQ ID NO:1) and ECM30 (SEQ ID NO:2) on IDE activity over time was evaluated at four different dose levels (0, 12.5, 25, and 50 μg/ml for ECM32 and 0, 25, 50, and 100 μg/ml for ECM30). The results are shown in FIG. 9 for ECM32 (SEQ ID NO:1) and FIG. 10 for ECM30 (SEQ ID NO:2). […]

normal and diabetic rats = assay: Effect on plasma glucose level in normal and diabetic rats; type: in vivo, rat; details: injected at 2 mg/kg
Experimental: The effect of ECM32 (SEQ ID NO:1) and ECM30 (SEQ ID NO:2) on the plasma glucose levels in normal and diabetic rats was evaluated. The peptides were injected at 2 mg/kg along with a control group. […] This could be due to ADAM-17 cleavage of ECM30 into IDE inhibitory forms in vivo.

Sequence of ADAM-17 (P78536 215-824, species assumed): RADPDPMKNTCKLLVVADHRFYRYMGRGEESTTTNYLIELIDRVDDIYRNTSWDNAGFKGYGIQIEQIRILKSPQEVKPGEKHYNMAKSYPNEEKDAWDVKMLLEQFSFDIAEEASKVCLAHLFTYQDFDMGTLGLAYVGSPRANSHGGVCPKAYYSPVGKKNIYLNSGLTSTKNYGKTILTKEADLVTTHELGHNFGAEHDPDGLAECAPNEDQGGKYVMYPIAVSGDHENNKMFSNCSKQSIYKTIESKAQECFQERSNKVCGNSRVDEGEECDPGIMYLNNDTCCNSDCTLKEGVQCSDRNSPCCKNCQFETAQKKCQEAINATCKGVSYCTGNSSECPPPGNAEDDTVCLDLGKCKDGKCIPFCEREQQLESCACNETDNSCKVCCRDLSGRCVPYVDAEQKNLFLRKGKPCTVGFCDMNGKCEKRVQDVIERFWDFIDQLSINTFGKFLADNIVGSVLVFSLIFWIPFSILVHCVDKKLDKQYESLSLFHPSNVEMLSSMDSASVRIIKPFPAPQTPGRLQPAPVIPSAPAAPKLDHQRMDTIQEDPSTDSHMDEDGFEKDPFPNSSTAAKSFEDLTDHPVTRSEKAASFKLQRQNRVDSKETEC

- level at 2 h ([1]; Diabetic Rats (ZDF), read-out: ECM32 (AdipoR1) in Plasma, Mean ± SD): 95.1 ± 36.1 ng/mL
- level at 2 h ([1]; Normal Rats (SD)): 113 ± 18.5 ng/mL
Molecule: CC(C)C[C@H](NC(=O)[C@H](CC(C)C)NC(=O)[C@@H](NC(=O)[C@H](CC(=O)O)NC(=O)[C@H](CC(=O)O)NC(=O)[C@@H](NC(=O)[C@H](CS)NC(=O)CNC(=O)CNC(=O)[C@H](CCC(=O)O)NC(=O)[C@H](CC(C)C)NC(=O)CNC(=O)[C@H](Cc1ccc(O)cc1)NC(=O)[C@H](CCCNC(=N)N)NC(=O)[C@H](Cc1ccccc1)NC(=O)[C@H](CCC(=O)O)NC(=O)[C@H](CCC(N)=O)NC(=O)[C@H](CC(C)C)NC(=O)[C@H](CC(N)=O)NC(=O)[C@H](CO)NC(=O)[C@@H](NC(=O)CNC(=O)[C@H](Cc1ccc(O)cc1)NC(=O)[C@H](Cc1ccccc1)NC(=O)[C@H](Cc1c[nH]cn1)NC(=O)[C@@H](NC(=O)[C@H](Cc1ccccc1)NC(=O)[C@H](C)NC(=O)[C@H](C)NC(=O)[C@H](C)NC(=O)[C@@H](NC(=O)[C@@H](N)C(C)C)C(C)C)C(C)C)C(C)C)[C@@H](C)O)[C@@H](C)O)C(=O)O [ECM32] (H-VVAAAFVHFYGVSNLQEFRYGLEGGCTDDTLL-OH; N-terminus and C-terminus assumed)

- ADAM 17 inhibition (ADAM-17; listed as ECM 10): negative
- IDE inhibition [2]: inhibit IDE activity
- IDE inhibition ([2]; listed as ECM 10): positive
Molecule: VVAAAFVHFY [ECM10, ADIPOR1 fragment, 10 amino acids]
- ADAM 17 inhibition (ADAM-17): no significant effect on ADAM-17 activity

- inhibitory effect on ADAM-17 (% TACE control activity) (ADAM-17; Example 4, 0, 12.5, 25, 50 mg/L): did not significantly inhibit
- ADAM 17 inhibition (ADAM-17; listed as ECM 30): negative
- IDE activity over time [3]: no significant effect on IDE over time
- IDE inhibition [2]: no significant effect on IDE
- IDE inhibition ([2]; listed as ECM 30): negative
Molecule: HVLVVAAAFVHFYGVSNLQEFRYGLEGGCT (listed as Homo Sapiens) [ECM30, ADIPOR1 fragment, 30 amino acids, uncleaved form]
- plasma insulin compared to the control group (normal rats; 2 mg/mL in saline intravenously, 0-120 min post glucose dose): marked elevation in the plasma insulin
- insulin peak relative to control (normal rats; 30 minute time point): twice that observed for the control
- plasma insulin (diabetic rats): did not increase insulin
- ADAM 17 inhibition (ADAM-17): no significant effect on ADAM-17 activity
- elastase inhibition (Elastase): Neither ECM30 nor ECM32 showed elastase inhibition
- plasma glucose levels (normal and diabetic rats): lowered glucose levels, but at longer time points

- ADAM 17 inhibition (ADAM-17; listed as ECM 9): negative
- IDE inhibition [2]: inhibit IDE activity
- IDE inhibition ([2]; listed as ECM 9): positive
Molecule: SGCTDDTLL [ECM9, ADIPOR1 fragment, 9 amino acids]
- ADAM 17 inhibition (ADAM-17): no significant effect on ADAM-17 activity

- ADAM 17 inhibition (ADAM-17; listed as ECM 25): negative
- IDE inhibition [2]: inhibit IDE activity
- IDE inhibition ([2]; listed as ECM 25): positive
Molecule: HFYGVSNLQEFRYGLEGGCTDDTLL [ECM25, ADIPOR1 C-terminal fragment, 25 amino acids]
- ADAM 17 inhibition (ADAM-17): no significant effect on ADAM-17 activity

Molecule: HFYGVSNLQEFR [ECM12, ADIPOR1 fragment, 12 amino acids]
- ADAM 17 inhibition (ADAM-17): no significant effect on ADAM-17 activity; also recorded: negative
- IDE inhibition [2]: inhibit IDE activity; also recorded: positive
